# Measured values reported in PMC8782954, “Interplay between an ATP-binding cassette F protein and the ribosome from Mycobacterium tuberculosis” (Nature Communications, 2022).
# B1: ribosomal protein uS7 of the Mtb 30S subunit (natural protein)
# chain: MPRKGPAPKRPLVNDPVYGSQLVTQLVNKVLLKGKKSLAERIVYGALEQARDKTGTDPVITLKRALDNVKPALEVRSRRVGGATYQVPVEVRPDRSTTLALRWLVGYSRQRREKTMIERLANEILDASNGLGASVKRREDTHKMAEANRAFAHYRW
# B2: MtbEttA (energy-dependent translational throttle A from Mycobacterium tuberculosis, Rv2477c) (natural protein)
# chain: SMAEFIYTMKKVRKAHGDKVILDDVTLSFYPGAKIGVVGPNGAGKSSVLRIMAGLDKPNNGDAFLATGATVGILQQEPPLNEDKTVRGNVEEGMGDIKIKLDRFNEVAELMATDYTDELMEEMGRLQEELDHADAWDLDAQLEQAMDALRCPPADEPVTNLSGGERRRVALCKLLLSKPDLLLLDEPTNHLDAESVQWLEQHLASYPGAILAVTHDRYFLDNVAEWILELDRGRAYPYEGNYSTYLEKKAERLAVQGRKDAKLQKRLTEELAWVRSGAKARQAKSKARLQRYEEMAAEAEKTRKLDFEEIQIPVGPRLGNVVVEVDHLDKGYDGRALIKDLSFSLPRNGIVGVIGPNGVGKTTLFKTIVGLETPDSGSVKVGETVKLSYVDQARAGIDPRKTVWEVVSDGLDYIQVGQTEVPSRAYVSAFGFKGPDQQKPAGVLSGGERNRLNLALTLKQGGNLILLDEPTNDLDVETLGSLENALLNFPGCAVVISHDRWFLDRTCTHILAWEGDDDNEAKWFWFEGNFGAYEENKVERLGVDAARPHRVTHRKLTRG
# notes: also called Mtb Rv2477c
# Legend:
# [1] = target: B2; test: cryo-EM structure; conditions: both partners purified
# SEC = target: the molecule itself; test: SEC
Binder,binding result [1],stoichiometry N (SEC)
B1,binds,–
B2,–,2
